Drawing on the Human Domainome abundance scans (Beltran et al. 2025), this text covers abundance fitness for 42 variants.

The labels stand for the following.
B1: Intersectin-1, residues 909 to 971; numbered along this chain, Q15811 (parent)
chain: QGEKVEGLQAQALYPWRAKKDNHLNFNKNDVITVLEQQDMWWFGEVQGQKGWFPKSYVKLISG

± gives the uncertainty stated by the source.

The variants in the data set derive from B1. The data set is described as follows: abundance fitness (aPCA) (normalised: wild type 0, dead -1); higher = more abundant; growth selection in yeast, the domain comes from the species named. The conditions noted are these: Homo sapiens.
Turning to QGEKVEGLQAQALYPWRYKKDNHLNFNKNDVITVLEQQDMWWFGEVQGQKGWFPKSYVKLISG [A18Y], the abundance fitness is -0.365 ± 0.073. With QGEKVEGLQAQALYPWRTKKDNHLNFNKNDVITVLEQQDMWWFGEVQGQKGWFPKSYVKLISG [A18T], the abundance fitness was -0.065 ± 0.078. QGEKVEGLQAQALYPWRMKKDNHLNFNKNDVITVLEQQDMWWFGEVQGQKGWFPKSYVKLISG [A18M]: the abundance fitness is -0.09 ± 0.11. On to QGEKVEGLQAQALYPWRDKKDNHLNFNKNDVITVLEQQDMWWFGEVQGQKGWFPKSYVKLISG [A18D], for which the abundance fitness was -0.109 ± 0.072.

For QGEKVEGLQAQALYPWRGKKDNHLNFNKNDVITVLEQQDMWWFGEVQGQKGWFPKSYVKLISG [A18G], the abundance fitness stood at 0.043 ± 0.049.

As for QGEKVEGLQAQALYPWRNKKDNHLNFNKNDVITVLEQQDMWWFGEVQGQKGWFPKSYVKLISG [A18N], the abundance fitness was -0.086 ± 0.065. Consider QGEKVEGLQAQALYPWRLKKDNHLNFNKNDVITVLEQQDMWWFGEVQGQKGWFPKSYVKLISG [A18L], for which the abundance fitness was -0.274 ± 0.065. Regarding QGEKVEGLQAQALYPWRRKKDNHLNFNKNDVITVLEQQDMWWFGEVQGQKGWFPKSYVKLISG [A18R], the abundance fitness was -0.267 ± 0.072.

Take QGEKVEGLQAQALYPWRVKKDNHLNFNKNDVITVLEQQDMWWFGEVQGQKGWFPKSYVKLISG [A18V]: the abundance fitness was -0.215 ± 0.052. As to QGEKVEGLQAQALYPWREKKDNHLNFNKNDVITVLEQQDMWWFGEVQGQKGWFPKSYVKLISG [A18E], the abundance fitness was -0.234 ± 0.12. Regarding QGEKVEGLQAQALYPWRWKKDNHLNFNKNDVITVLEQQDMWWFGEVQGQKGWFPKSYVKLISG [A18W], the abundance fitness was -0.362 ± 0.1. Then QGEKVEGLQAQALYPWRQKKDNHLNFNKNDVITVLEQQDMWWFGEVQGQKGWFPKSYVKLISG [A18Q], with -0.494 ± 0.15. Then QGEKVEGLQAQALYPWRCKKDNHLNFNKNDVITVLEQQDMWWFGEVQGQKGWFPKSYVKLISG [A18C], with -0.189 ± 0.07; and QGEKVEGLQAQALYPWRSKKDNHLNFNKNDVITVLEQQDMWWFGEVQGQKGWFPKSYVKLISG [A18S], with -0.058 ± 0.047; and QGEKVEGLQAQALYPWRPKKDNHLNFNKNDVITVLEQQDMWWFGEVQGQKGWFPKSYVKLISG [A18P], with -0.034 ± 0.1. Then QGEKVEGLQAQALYPWRKKKDNHLNFNKNDVITVLEQQDMWWFGEVQGQKGWFPKSYVKLISG [A18K], with -0.059 ± 0.15. On to QGEKVEGLQAQALTPWRAKKDNHLNFNKNDVITVLEQQDMWWFGEVQGQKGWFPKSYVKLISG [Y14T], for which the abundance fitness was -0.191 ± 0.14.

As to QGEKVEGLQAQALLPWRAKKDNHLNFNKNDVITVLEQQDMWWFGEVQGQKGWFPKSYVKLISG [Y14L], the abundance fitness turned out to be 0.009 ± 0.097. QGEKVEGLQAQALQPWRAKKDNHLNFNKNDVITVLEQQDMWWFGEVQGQKGWFPKSYVKLISG [Y14Q]: the abundance fitness was -0.129 ± 0.21. On to QGEKVEGLQAQALPPWRAKKDNHLNFNKNDVITVLEQQDMWWFGEVQGQKGWFPKSYVKLISG [Y14P], for which the abundance fitness is -0.585 ± 0.44. Next, QGEKVEGLQAQALSPWRAKKDNHLNFNKNDVITVLEQQDMWWFGEVQGQKGWFPKSYVKLISG [Y14S]: -0.233 ± 0.11. On to QGEKVEGLQAQALRPWRAKKDNHLNFNKNDVITVLEQQDMWWFGEVQGQKGWFPKSYVKLISG [Y14R], for which the abundance fitness is -0.052 ± 0.084.

Take QGEKVEGLQAQALDPWRAKKDNHLNFNKNDVITVLEQQDMWWFGEVQGQKGWFPKSYVKLISG [Y14D]: the abundance fitness was -0.104 ± 0.17.

Turning to QGEKVEGLQAQALAPWRAKKDNHLNFNKNDVITVLEQQDMWWFGEVQGQKGWFPKSYVKLISG [Y14A], the abundance fitness was -0.09 ± 0.092. Next, QGEKVEGLQAQALIPWRAKKDNHLNFNKNDVITVLEQQDMWWFGEVQGQKGWFPKSYVKLISG [Y14I]: -0.058 ± 0.16; QGEKVEGLQAQALHPWRAKKDNHLNFNKNDVITVLEQQDMWWFGEVQGQKGWFPKSYVKLISG [Y14H]: -0.103 ± 0.23.

Take QGEKVEGLQAQALGPWRAKKDNHLNFNKNDVITVLEQQDMWWFGEVQGQKGWFPKSYVKLISG [Y14G]: the abundance fitness is -0.159 ± 0.072. Then QGEKVEGLQAQALKPWRAKKDNHLNFNKNDVITVLEQQDMWWFGEVQGQKGWFPKSYVKLISG [Y14K], with -0.098 ± 0.15. Next, QGEKVEGLQAQALFPWRAKKDNHLNFNKNDVITVLEQQDMWWFGEVQGQKGWFPKSYVKLISG [Y14F]: -0.725 ± 0.44. Next, QGEKVEGLQAQALCPWRAKKDNHLNFNKNDVITVLEQQDMWWFGEVQGQKGWFPKSYVKLISG [Y14C]: -0.511 ± 0.14.

Turning to QGEKVEGLQAQALEPWRAKKDNHLNFNKNDVITVLEQQDMWWFGEVQGQKGWFPKSYVKLISG [Y14E], the abundance fitness is 0.023 ± 0.12.

Turning to QGEKVEGLQAQALVPWRAKKDNHLNFNKNDVITVLEQQDMWWFGEVQGQKGWFPKSYVKLISG [Y14V], the abundance fitness came out at 0.011 ± 0.086. With QGEKVEGLQAQATYPWRAKKDNHLNFNKNDVITVLEQQDMWWFGEVQGQKGWFPKSYVKLISG [L13T], the abundance fitness was -0.233 ± 0.18. With QGEKVEGLQAQARYPWRAKKDNHLNFNKNDVITVLEQQDMWWFGEVQGQKGWFPKSYVKLISG [L13R], the abundance fitness was -0.126 ± 0.11. Then QGEKVEGLQAQASYPWRAKKDNHLNFNKNDVITVLEQQDMWWFGEVQGQKGWFPKSYVKLISG [L13S], with -0.412 ± 0.2; and QGEKVEGLQAQAVYPWRAKKDNHLNFNKNDVITVLEQQDMWWFGEVQGQKGWFPKSYVKLISG [L13V], with 0.091 ± 0.12. Next, QGEKVEGLQAQALYDWRAKKDNHLNFNKNDVITVLEQQDMWWFGEVQGQKGWFPKSYVKLISG [P15D]: -0.156 ± 0.17; QGEKVEGLQAQALYGWRAKKDNHLNFNKNDVITVLEQQDMWWFGEVQGQKGWFPKSYVKLISG [P15G]: 0.115 ± 0.071. Next, QGEKVEGLQAQALYTWRAKKDNHLNFNKNDVITVLEQQDMWWFGEVQGQKGWFPKSYVKLISG [P15T]: -0.059 ± 0.17; QGEKVEGLQAQALYQWRAKKDNHLNFNKNDVITVLEQQDMWWFGEVQGQKGWFPKSYVKLISG [P15Q]: 0.052 ± 0.13; QGEKVEGLQAQALYEWRAKKDNHLNFNKNDVITVLEQQDMWWFGEVQGQKGWFPKSYVKLISG [P15E]: 0.054 ± 0.12. For the variant QGEKVEGLQAQALYIWRAKKDNHLNFNKNDVITVLEQQDMWWFGEVQGQKGWFPKSYVKLISG [P15I], the abundance fitness was -0.127 ± 0.2.
